Results published in patent publication US20120196760A1, “METHODS AND COMPOSITIONS FOR IDENTIFYING MODULATORS OF ANTI-TETHERIN ACTIVITY TO INHIBIT P[…] VIRUSES” (CHILDRENS HOSPITAL LOS ANGELES, priority 2008, published 2012).

System: HIV-1 VLPs
Assay: HIV-1 VLP release from cells expressing Tetherin constructs (Western blot, % VLP release)
Format: cell-based
Conditions: Tetherin expressed alone, no anti-Tetherin; FIG. 9B

B1: full-length human Tetherin: human cellular protein that tethers newly budded HIV particles at the cell surface and restricts virus release (protein)
chain: MASTSYDYCRVPMEDGDKRCKLLLGIGILVLLIIVILGVPLIIFTIKANSEACRDGLRAVMECRNVTHLLQQELTEAQKGFQDVEAQAATCNHTVMALMASLDAEKAQGQKKVEELEGEITTLNHKLQDASAEVERLRRENQVLSVRIADKKYYPSSQDSS
  reduction of release of Virus-Like Particles (VLPs): about 95%
